In patent publication US20230192839A1, “ANTIBODIES HAVING CONDITIONAL AFFINITY AND METHODS OF USE THEREOF” (PFIZER INC., priority 2017, published 2023):
Where a chain is given by its changes, count along the chain named. Each block holds one molecule with its values, some of them ahead of it.

Key:
[1] = test system: human epidermal growth factor receptor (EGFR); assay: Biacore SPR binding kinetics of anti-EGFR scFv-Fc clones with or without 10 µM MTX; details: 37° C.; for koff, kinetics toward antigen with 0 µM MTX / kon, kinetics toward antigen with 0 µM MTX / koff, kinetics toward antigen with 10 µM MTX / kon, kinetics toward antigen with 10 µM MTX: pH 7.4, scFv-Fc; for koff, kinetics toward antigen with 10 µM MTX / kon, kinetics toward antigen with 10 µM MTX / Kd: 10 µM MTX; for Kd: pH 7.4, koff/kon, or estimated from binding response / limit of detection for weak interactions, read-out: KD, kinetics toward antigen with 10 µM MTX
Method: All binding kinetics analysis was performed on label-free Biacore surface plasmon biosensors (Biacore T200™ from GE Life Sciences) at 37° C. in 10 mM Hepes pH 7.4, 150 mM NaCl, 0.05% Tween-20 (HBST+), with or without 10 µM MTX. The Biacore data were processed in Biacore T200 Evaluation Software, and the data were double-referenced (Myszka, 1999, J Mol Recognit 12(5):279-284) and fit globally to a simple Langmuir with mass transport model to determine the equilibrium dissociation constant, KD, from the ratio of the kinetic rate constants (KD = koff/kon). In some cases the binding of antigen was very low (or not detectable) in the presence of 10 µM MTX and as a result kinetic rate constants could not be accurately determined. In these cases, a KD (or KD limit) was estimated based on the binding response at the highest analyte concentration tested or based on the typical limit of detection for a Biacore T200. […]

MV4-11 cells = assay: Sequential rounds of in vitro cytotoxicity assays with changing MTX concentration (reversible inhibition); type: cell-based, human; details: Round 0-1 no MTX, then 100 µM MTX at Round 1-2 and Round 2-3; FIGS. 9A and 9B
Method: The anti-CD33 clones tested in this example were: P03_A01, P07_C04, and P02_D09. In addition, a tool T cell was prepared as described in Example 4, as were untransduced T cells. Also, each of the different conditional CAR T cells described above was generated in triplicate from PBMC cells from three different human donors. The target cell line used in this assay was MV4-11; these cells were transduced to stably express GFP and firefly luciferase, as described in Example 5.
This experiment involved a series of in vitro cytotoxicity assays, in which co-cultures of T cells and MV4-11 target cells were incubated together for multiple rounds of sequential cytotoxicity assays, in which the MTX concentration changed at different rounds of the assays. In vitro cytotoxicity assays were carried out in 24-well plates by co-culturing 200,000 T cells with 200,000 MV4-11 cells, for each different T cells described above. In addition, each of the co-cultures contained either 100 µM MTX or 0 µM MTX at different times, as indicated by the schematics in FIGS. 9A and 9C. In both conditions, 1 mM leucovorin was supplemented to circumvent MTX toxicity. For each round of the assay, co-cultures were maintained in a final volume of 500 µl of RPMI 1640 medium at 37 C with 5% CO2 for 48 hours. At the end of each round, cells were spun down (250 × g, 10 minutes), supernatant was removed, and fresh media containing fresh MV4-11 cells, leucovorin, and optionally MTX were added according to the schematics shown in FIGS. 9A and 9C. Target cell killing was assessed and plotted as described in Example 4.
In comparing the different panels of FIGS. 9A-9D, note that the schematics shown in FIGS. 9A and 9C indicate the MTX concentration in the co-culture at the start of the assay for a given round, whereas the results from that assay are shown the next round number in FIGS. 9B and 9D, respectively. […]

human CD33 = assay: Biacore SPR binding kinetics of anti-CD33 scFv-Fc clones with or without 10 µM MTX; details: CD33, 37° C., pH 7.4
Source text: The first 4 rounds of panning used biotinylated CD33 antigen captured on streptavidin or neutravidin coated 96-well plates. […] 1536 clones were randomly chosen from the 4th and 5th round of panning against the CD33 antigen and their binding specificity determined by phage ELISA. Clones that specifically bound to CD33 were sequenced and all unique clones were subjected to a phage competition ELISA to assess their relative affinities to CD33 and sensitivity to MTX by measuring their binding strengths in the presence or absence of 10 µM (micromolar) MTX (i.e. in 0 or 10 µM MTX).
All binding kinetics analysis was performed on label-free Biacore surface plasmon biosensors (Biacore T200™ from GE Life Sciences) at 37° C. in 10 mM Hepes pH 7.4, 150 mM NaCl, 0.05% Tween-20 (HBST+), with or without 10 µM MTX. The Biacore data were processed in Biacore T200 Evaluation Software, and the data were double-referenced (Myszka, 1999, J Mol Recognit 12(5):279-284) and fit globally to a simple Langmuir with mass transport model to determine the equilibrium dissociation constant, KD, from the ratio of the kinetic rate constants (KD = koff/kon). In some cases the binding of antigen was very low (or not detectable) in the presence of 10 µM MTX and as a result kinetic rate constants could not be accurately determined. In these cases, a KD (or KD limit) was estimated based on the binding response at the highest analyte concentration tested or based on the typical limit of detection for a Biacore T200.

- koff, kinetics toward antigen with 0 µM MTX [1]: 0.024 s⁻¹
- kon, kinetics toward antigen with 0 µM MTX [1]: 100000 M⁻¹ s⁻¹
- koff, kinetics toward antigen with 10 µM MTX [1]: 0.026 s⁻¹
- kon, kinetics toward antigen with 10 µM MTX [1]: 100000 M⁻¹ s⁻¹
B1: P01_B06: anti-EGFR reference clone, less than 2-fold MTX effect; VH SEQ ID NO: 129, VL SEQ ID NO: 130 (antibody, V domains shown)
VH: QVQLVESGGGLVQAGGSLRLSCAASRRSSRSWAMHWVRQAPGKGLEWVAVISYDGRLKYYADSVKGRFTISRDNAEYLVYLQMNSLRAEDTAVYYCAADTSMFASYDPMDVWGQGTLVTVSS
VL: QSVLTQPPSASGTPGQRVTISCSGSSSNIGRNYVNWYQQLPGTAPKLLIYRDDHRPSGVPDRFSGSKSGTSASLAISGLRSEDEADYYCASWDDTLSGWVFGTGTKLTVL
modifications: Synthetic Antibody

- koff, kinetics toward antigen with 0 µM MTX [1]: 0.028 s⁻¹
- kon, kinetics toward antigen with 0 µM MTX [1]: 120000 M⁻¹ s⁻¹
- koff, kinetics toward antigen with 10 µM MTX [1]: 0.05 s⁻¹
- kon, kinetics toward antigen with 10 µM MTX [1]: 87000 M⁻¹ s⁻¹
B2: P05_A11: anti-EGFR clone with conditional affinity; VH SEQ ID NO: 133, VL SEQ ID NO: 134; also as scFv in CAR (antibody, V domains shown)
VH: QVQLVESGGGLVQAGGSLRLSCAASRRSSRSWAMHWVRQAPGKGLEWVAVISYDGRLKYYADSVKGRFTISRDNAEYLVYLQMNSLRAEDTAVYYCAASDDADIFDDYSYGAMDYWGQGTLVTVSS
VL: B1 VL with N35Y, R51M, D52T, D53S, H54Q, T95N, S97R, G98A
modifications: Synthetic Antibody
notes: also as scFv in CAR

- koff, kinetics toward antigen with 0 µM MTX [1]: 0.011 s⁻¹
- kon, kinetics toward antigen with 0 µM MTX [1]: 61000 M⁻¹ s⁻¹
- Kd [1]: > 9.41 µM
B3: P01_F02: anti-EGFR clone with conditional affinity; VH SEQ ID NO: 119, VL SEQ ID NO: 120; also as scFv in CAR (antibody, V domains shown)
VH: QVQLVESGGGLVQAGGSLRLSCAASRRSSRSWAMHWVRQAPGKGLEWVAVISYDGRLKYYADSVKGRFTISRDNAEYLVYLQMNSLRAEDTAVYYCAADVESALAYGEPYHHMDVWGQGTLVTVSS
VL: B1 VL with N35Y, D52T, D53S, H54Q, S91T, T95S
modifications: Synthetic Antibody
notes: also as scFv in CAR

- koff, kinetics toward antigen with 0 µM MTX [1]: 0.00067 s⁻¹
- kon, kinetics toward antigen with 0 µM MTX [1]: 110000 M⁻¹ s⁻¹
- koff, kinetics toward antigen with 10 µM MTX [1]: 0.00072 s⁻¹
- kon, kinetics toward antigen with 10 µM MTX [1]: 29000 M⁻¹ s⁻¹
B4: P14_E03: anti-EGFR clone with conditional affinity; VH SEQ ID NO: 125, VL SEQ ID NO: 126 (antibody, V domains shown)
VH: QVQLVESGGGLVQAGGSLRLSCAASRRSSRSWAMHWVRQAPGKGLEWVAVISYDGRLKYYADSVKGRFTISRDNAEYLVYLQMNSLRAEDTAVYYCAAAPRVDWSDVSSGIDYWGQGTLVTVSS
VL: QSVLTQPPSASGTPGQRVTISCSGSISNIGTNNVYWYQQLPGTAPKLLIYRNNQRPSGVPDRFSGSKSGTSASLAISGLRSEDEADYYCSAWDDSLSGVVFGTGTKLTVL
modifications: Synthetic Antibody

- koff, kinetics toward antigen with 0 µM MTX (human CD33; scFv-Fc): 0.0029 s⁻¹
- kon, kinetics toward antigen with 0 µM MTX (human CD33; scFv-Fc): 95000 M⁻¹ s⁻¹
- koff, kinetics toward antigen with 10 µM MTX (human CD33; 10 µM MTX, scFv-Fc): 0.025 s⁻¹
- kon, kinetics toward antigen with 10 µM MTX (human CD33; 10 µM MTX, scFv-Fc): 170000 M⁻¹ s⁻¹
B5: P07_C04: anti-CD33 clone with conditional affinity; VH SEQ ID NO: 25, VL SEQ ID NO: 26; also as scFv in CAR (antibody, V domains shown)
VH: QVQLVESGGGLVQAGGSLRLSCAASRRSSRSWAMHWVRQAPGKGLEWVAVISYDGRLKYYADSVKGRFTISRDNAEYLVYLQMNSLRAEDTAVYYCAAEPDGEGTNGGLDIWGQGTLVTVSS
VL: DIQMTQSPSSLSASVGDRVTITCRASQNISRYLNWYQQKPGKAPKLLIYSASSLQTGVPSRFSGSGSGTDFTLTISSLQPEDFATYYCQQSYSSGAFGQGTKVEIK
modifications: Synthetic Antibody
notes: also as scFv in CAR
- target cell killing when MTX is added to active CAR T cells ("on" to "off") (MV4-11 cells): quick inhibition rates

- koff, kinetics toward antigen with 0 µM MTX (human CD33; scFv-Fc): 0.037 s⁻¹
- kon, kinetics toward antigen with 0 µM MTX (human CD33; scFv-Fc): 28000 M⁻¹ s⁻¹
B6: P02_H01: anti-CD33 clone with conditional affinity; VH SEQ ID NO: 17, VL SEQ ID NO: 18 (antibody, V domains shown)
VH: QVQLVESGGGLVQAGGSLRLSCAASRRSSRSWAMHWVRQAPGKGLEWVAVISYDGRLKYYADSVKGRFTISRDNAEYLVYLQMNSLRAEDTAVYYCAAGSGGGDGLDVWGQGTLVTVSS
VL: B5 VL with N28T, R31S, A51S, S53T, T56G, A96T
modifications: Synthetic Antibody

- koff, kinetics toward antigen with 0 µM MTX (human CD33; scFv-Fc): 0.0094 s⁻¹
- kon, kinetics toward antigen with 0 µM MTX (human CD33; scFv-Fc): 71000 M⁻¹ s⁻¹
- Kd (human CD33; 10 µM MTX, koff/kon, or estimated from binding response / limit of detection for weak interactions, read-out: KD, kinetics toward antigen with 10 µM MTX): > 10.9 µM
B7: P03_G12: anti-CD33 clone with conditional affinity; VH SEQ ID NO: 21, VL SEQ ID NO: 22 (antibody, V domains shown)
VH: QVQLVESGGGLVQAGGSLRLSCAASRRSSRSWAMHWVRQAPGKGLEWVAVISYDGRLKYYADSVKGRFTISRDNAEYLVYLQMNSLRAEDTAVYYCAADPTEGWSYLDYWGQGTLVTVSS
VL: B5 VL with N28G, R31S, S50G, S53R, T56S, S91G, A96T
modifications: Synthetic Antibody

- koff, kinetics toward antigen with 0 µM MTX (human CD33; scFv-Fc): 0.0038 s⁻¹
- kon, kinetics toward antigen with 0 µM MTX (human CD33; scFv-Fc): 58000 M⁻¹ s⁻¹
B8: P02_E11: anti-CD33 clone with conditional affinity; VH SEQ ID NO: 15, VL SEQ ID NO: 16; also as scFv in CAR (antibody, V domains shown)
VH: B6 VH with G99E, S100A, G101S, G102T, G103D, D104N, V108Y
VL: B5 VL with N28T, Y32H, Q55A, T56S, Y92H, S94A, A96T
modifications: Synthetic Antibody
notes: also as scFv in CAR

- koff, kinetics toward antigen with 0 µM MTX [1]: 0.27 s⁻¹
- kon, kinetics toward antigen with 0 µM MTX [1]: 330000 M⁻¹ s⁻¹
- Kd [1]: > 9.37 µM
B9: P07_H08: anti-EGFR clone with conditional affinity; VH SEQ ID NO: 121, VL SEQ ID NO: 122; also as scFv in CAR (antibody, V domains shown)
VH: QVQLVESGGGLVQAGGSLRLSCAASRRSSRSWAMHWVRQAPGKGLEWVAVISYDGRLKYYADSVKGRFTISRDNAEYLVYLQMNSLRAEDTAVYYCAAGFDWGWDSSDIYSAMDYWGQGTLVTVSS
VL: DIQMTQSPSSLSASVGDRVTITCRASQNIGRYLHWYQQKPGKAPKLLIYSASNLQSGVPSRFSGSGSGTDFTLTISSLQPEDFATYYCQQSYSSPFTFGQGTKVEIK
modifications: Synthetic Antibody
notes: also as scFv in CAR
